Sequences and labels used below:
T1: AP-fusion of the Sema3F Ig and basic domains (AP-Sema3F-Ig-basic; residues 605-779) (UniProt Q13275 605-779)
T1 construct: semaphorin 3F (Sema3F), Ig and basic domains, residues 605-779; source: CHO cells, large-scale transient transfection from pAPtag-5
T1 sequence (looked up): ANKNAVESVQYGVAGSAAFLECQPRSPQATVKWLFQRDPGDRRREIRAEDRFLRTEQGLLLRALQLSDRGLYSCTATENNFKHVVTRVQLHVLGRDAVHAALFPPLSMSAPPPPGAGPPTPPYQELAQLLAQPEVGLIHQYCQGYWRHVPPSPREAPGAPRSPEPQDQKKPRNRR

T2: AP-fusion of full length Sema3F (AP-Sema3F; residues 20-779) (UniProt Q13275 20-779)
T2 construct: source: CHO cells, large-scale transient transfection from pAPtag-5
T2 sequence (looked up): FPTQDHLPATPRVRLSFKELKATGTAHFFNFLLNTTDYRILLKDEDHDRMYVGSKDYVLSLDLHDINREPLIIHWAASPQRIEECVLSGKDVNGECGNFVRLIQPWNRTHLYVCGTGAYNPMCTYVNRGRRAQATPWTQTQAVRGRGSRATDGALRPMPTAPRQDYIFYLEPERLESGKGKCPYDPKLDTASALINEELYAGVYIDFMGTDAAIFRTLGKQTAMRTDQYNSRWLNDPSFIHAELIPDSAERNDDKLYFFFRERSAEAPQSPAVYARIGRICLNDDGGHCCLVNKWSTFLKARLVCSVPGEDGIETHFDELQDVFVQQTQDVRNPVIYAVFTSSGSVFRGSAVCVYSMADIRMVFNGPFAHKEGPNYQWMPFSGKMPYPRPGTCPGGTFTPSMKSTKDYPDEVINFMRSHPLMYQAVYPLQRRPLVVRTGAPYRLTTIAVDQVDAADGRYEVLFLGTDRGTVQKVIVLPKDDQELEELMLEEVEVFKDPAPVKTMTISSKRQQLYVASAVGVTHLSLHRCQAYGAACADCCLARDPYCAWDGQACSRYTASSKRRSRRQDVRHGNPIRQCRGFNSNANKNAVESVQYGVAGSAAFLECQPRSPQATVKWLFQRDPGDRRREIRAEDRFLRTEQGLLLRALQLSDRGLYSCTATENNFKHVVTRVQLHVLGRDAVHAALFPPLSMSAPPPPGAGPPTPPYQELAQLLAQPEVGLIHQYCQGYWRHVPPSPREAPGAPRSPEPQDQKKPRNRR

B1: C-furSema3F (peptide of the C-terminal basic domain of furin processed Sema3F; residues 740-779) (peptide, UniProt Q13275 740-779, looked up)
peptide: GLIHQYCQGYWRHVPPSPREAPGAPRSPEPQDQKKPRNRR
modifications: also: dimer via intermolecular disulfide (oxidized)
notes: semaphorin 3F (Sema3F), C-terminal basic domain of the furin processed form, residues 740-779; source: synthetic peptide (LifeTein, South Plainfield, NJ), oxidized and purified
B2: Nrp2 b1b2 domains (human neuropilin-2) (domain or fragment, UniProt O60462 276-595, looked up)
chain: QCNVPLGMESGRIANEQISASSTYSDGRWTPQQSRLHGDDNGWTPNLDSNKEYLQVDLRFLTMLTAIATQGAISRETQNGYYVKSYKLEVSTNGEDWMVYRHGKNHKVFQANNDATEVVLNKLHAPLLTRFVRIRPQTWHSGIALRLELFGCRVTDAPCSNMLGMLSGLIADSQISASSTQEYLWSPSAARLVSSRSGWFPRIPQAQPGEEWLQVDLGTPKTVKGVIIQGARGGDSITAVEARAFVRKFKVSYSLNGKDWEYIQDPRTQQPKLFEGNMHYDTPDIRRFDPIPAQYVRVYPERWSPAGIGMRLEVLGCDWT
notes: neuropilin-2 (Nrp2), human, b1b2 coagulation factor domains; Limits of the b1b2 construct are in the cited earlier work; also called soluble Nrp2; wild-type Nrp2
B3: Nrp1 b1b2 domains (human neuropilin-1) (domain or fragment, UniProt O14786 274-586, looked up)
chain: KCMEALGMESGEIHSDQITASSQYSTNWSAERSRLNYPENGWTPGEDSYREWIQVDLGLLRFVTAVGTQGAISKETKKKYYVKTYKIDVSSNGEDWITIKEGNKPVLFQGNTNPTDVVVAVFPKPLITRFVRIKPATWETGISMRFEVYGCKITDYPCSGMLGMVSGLISDSQITSSNQGDRNWMPENIRLVTSRSGWALPPAPHSYINEWLQIDLGEEKIVRGIIIQGGKHRENKVFMRKFKIGYSNNGSDWKMIMDDSKRKAKSFEGNNNYDTPELRTFPALSTRFIRIYPERATHGGLGLRMELLGCEVE
notes: neuropilin-1 (Nrp1), human, b1b2 coagulation factor domains; Limits of the b1b2 construct are in the cited earlier work; about residues 273-586 as I recall; also called soluble Nrp1; wild-type Nrp1
B4: C-furSema3A (peptide of the C-terminal basic domain of furin processed Sema3A; residues 718-769) (peptide, UniProt Q14563 718-769, looked up)
peptide: MDEFCEQVWKRDRKQRRQRPGHTPGNSNKWKHLQENKKGRNRRTHEFERAPR
modifications: also: dimer via intermolecular disulfide (oxidized)
notes: semaphorin 3A (Sema3A), C-terminal basic domain of the furin processed form, residues 718-769; source: synthetic peptide (Neo-Peptide, Cambridge, MA), oxidized and purified

In experiment [1] the target is VEGF-A165. The experiment in a line: AP-Nrp binding to VEGF-A affinity plates. To be noted: parent: est. 100; read off a plot.
The target in experiment [2] is B3. Description: AP-fusion solid-phase plate binding assay (competition); C-furSema peptides titrated with AP-VEGF-A (100 µmole p-NPP hydrolyzed/min/L) in incubation buffer on low density Nrp1 affinity plates, 1 h at 25°C; pair: peptide and adsorbed Nrp1. The note with it: both partners purified.
Experiment [3] concerns the target AP-fusion of VEGF-A164 (AP-VEGF-A). Description: AP-fusion solid-phase plate binding assay (competition); Nrp1 b1b2 adsorbed on 96 well plates (2.5 ng/µl, low density); soluble Nrp titrated with AP-VEGF-A (155 µmole p-NPP hydrolyzed/min/L) in 20 mM Tris pH 7.5, 300 mM NaCl, 1 hr at 25°C; retained AP activity read at 405 nm; whether AP-VEGF-A was purified is not given.

The target in experiment [4] is T1, AP-fusion of the Sema3F Ig and basic …. The experiment in a line: AP-fusion solid-phase plate binding assay (competition); high density Nrp1 affinity plates (50 ng/µl); soluble Nrp1 or Nrp2 combined with AP-Sema3F-Ig-basic (181 µmole p-NPP hydrolyzed/min/L) in binding buffer (20 mM Tris pH 7.5, 50 mM NaCl), 1 hr at 25°C; whether the AP fusion was purified is not told.

The target of experiment [5] is T2, AP-fusion of full length Sema3F …. Description: AP-fusion solid-phase plate binding assay (competition); low density Nrp1 affinity plates; soluble Nrp1 or Nrp2 combined with AP-Sema3F (648 µmole p-NPP hydrolyzed/min/L) in incubation buffer (20 mM Tris pH 7.5, 300 mM NaCl), 1 h at 25°C; whether AP-Sema3F was purified is not told.
The target in experiment [6] is AP-fusion of VEGF-A164 (AP-VEGF-A). The experiment in a line: AP-fusion solid-phase plate binding assay (competition); Nrp1 b1b2 adsorbed on 96 well plates (2.5 ng/µl, low density); soluble Nrp titrated with AP-VEGF-A (155 µmole p-NPP hydrolyzed/min/L) in 20 mM Tris pH 7.5, 300 mM NaCl, 1 hr at 25°C; retained AP activity read at 405 nm; whether AP-VEGF-A was purified is not given. The source holds these as a separate data set.

Where “and” joins values, the source holds several entries; their conditions need not be identical. Equal entries are not always repeated. Where two headings read alike, the source gives them in different places. No end group written: not given here.

The text below walks through data of paper PMC3493496, “Mechanism of Selective VEGF-A Binding by Neuropilin-1 Reveals a Basis for Specific Ligand Inhibition” (PLoS ONE, 2012).

As usually defined, the IC50 is the concentration that inhibits the measured activity by half.

Consider “AP-Nrp2 b1b2, wild-type 301-DGR-303 replaced by TN (DGR/TN)”, for which the percent of parent in experiment [1] was 310%.
As to AP-Nrp2 b1b2, wild-type Q307E; Q308R, the percent of parent in experiment [1] amounted to 60%.
For the molecule AP-Nrp1 b1b2, wild-type E304Q; R305Q, the percent of parent in experiment [1] worked out at 38%.
Regarding AP-Nrp1 b1b2, wild-type E285R, the percent of parent in experiment [1] stood at 41%.
For the molecule “AP-Nrp1 b1b2, wild-type 299-TN-300 replaced by DGR (TN/DGR)”, the percent of parent in experiment [1] stood at 11%.
The same measure, in the same setting: to AP-Nrp2 b1b2, wild-type R287E belongs 310%; to “AP-Nrp1 b1b2, wild-type K350Q; K351N; K352G”, 34%; to “AP-Nrp2 b1b2, wild-type Q353K; N354K; G355K”, 510%.
B1: the concentration for half-maximal inhibition (IC50) in experiment [2] came out at 0.022 µM.
On to B2, for which the IC50 in experiment [3] was 120 µM and 160 µM and 200 µM; in experiment [4], 6.2 µM; in experiment [5], 2.7 µM; in experiment [6] it was 310 µM.
As for B3, the half-maximal inhibitory concentration (IC50) in experiment [3] was 1.6 µM and 2 µM; in experiment [4] it was 1.2 µM; in experiment [5], 2 µM; in experiment [6], 1.8 µM.
With B4, in experiment [2], the IC50 was 0.067 µM.
